# Measurements published in the supplement of paper PMC12042874.
# ± gives the uncertainty stated by the source.
# Assay: amyloid nucleation score (Sup35N fusion, yeast selection) (log enrichment); library NNK2; higher = more nucleation; inactive = no reads after selection
# Summary of the method: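 Libraries of peptides of 20 random codons fused to Sup35N were expressed in psi-negative yeast and induced 24 hours with 100 μM copper sulfate. Selection was 7 days at 30°C on medium lacking adenine and uracil, and plasmid inserts were Illumina-sequenced before and after selection. Nucleation score is the DiMSum log enrichment of output over input reads, centred on the mode score of non-aggregating sequences, and sequences with under 100 input reads were left out.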
row,Substance,amyloid nucleation score
1,WIILGTSSAVWRTHDYLA,3.43 ± 0.06
2,WIMNKANNCKCFIEDTNWS,7.352 ± 0.044
3,WKIQACVSYQQGAVRGVCVD,0.139 ± 0.34
4,WLDSQWNLYLDLYHLYRSCR,3.22 ± 0.12
5,WLLGMYVIRGRQSYNSKDVR,3.38 ± 0.054
6,WLLVDGEH,0.025 ± 0.45
7,WLMTYFNISSGFKSVTWVES,3.69 ± 0.11
8,WLPNQVKGHLSFRMCSDIRH,4.334 ± 0.035
9,WLPYTCNFVMTVSRYSSMRG,inactive
10,WLSTVVL,inactive
11,WLTEVY,-0.587 ± 0.79
12,WLVSSVSCQPMSQSSFVGGL,5.498 ± 0.05
13,WLVTAMSMLVCLPGYESLYW,1.98 ± 0.21
14,WLWIKLEPLICSNFCWVVLW,0.537 ± 0.48
15,WLYYDGSFW,-0.429 ± 0.76
16,WMGIWYGCVWVFGMVGANNR,2.2 ± 0.063
17,WMLCLDLKANKMCLMVISME,-1.32 ± 0.76
18,WMLNLDLLIFASLRGVVEGD,inactive
19,WMYTSRPNSSQTIRGWRATY,-0.046 ± 0.39
20,WNECVFGAPAFSRE,3.11 ± 0.15
21,WNVFKLSGSSYV,-0.483 ± 0.31
22,WQCKLPSNYGFGTK,0.11 ± 0.77

row,Substance,amyloid nucleation score
1,WQRLKLSEKLVGSAVPLKAG,4.44 ± 0.11
2,WQRRIGKFCDKQWSFQMMVH,-0.021 ± 0.63
3,WRASK,3.23 ± 0.057
4,WRCDLSNPTFAMYVDAVWAS,1.16 ± 0.18
5,WRKRYEYTVRVGRSAKSTLM,0.455 ± 0.37
6,WRNLDLK,-0.562 ± 1.1
7,WRRFRFLLPWSLRPMS,inactive
8,WRYGNDYTFLIMDGC,-0.511 ± 0.37
9,WSCNRNCSIFDR,-0.373 ± 0.45
10,WSDACSGCNFK,inactive
11,WSDSFTCDCGKLITTSSRLS,2.02 ± 0.15
12,WSFLYE,-0.548 ± 0.33
13,WSGWSQGDGLVQGQVMRAFV,-0.284 ± 0.79
14,WSMFLLRMAPMRMLTTINFV,-0.504 ± 0.33
15,WSPYEEPR,0.298 ± 0.35
16,WSRMLFGECRSGKLRLPMPR,3.73 ± 0.099
17,WTCDCSLKVFCNM,4.91 ± 0.056
18,WTPTVFVDMHPSNGLVDILY,-0.896 ± 0.61
19,WTTMRLFLDFMYTLDRVGST,-0.291 ± 1.1
20,WTVGRRELGCM,inactive
21,WTYGVTRLSSLCSAIDLSLG,-0.598 ± 1.1
22,WVGAVKFFRSVKRQMSIYLE,inactive

row,Substance,amyloid nucleation score
1,WVGLHVR,0.525 ± 0.36
2,WVHGIESSRWRFGL,-0.474 ± 1.1
3,WVTIALYCNKLIVTVRGGIG,-0.029 ± 1.1
4,WVVRK,-1.76 ± 0.44
5,WWFLKLDGRLPKLWAFLTMG,-0.22 ± 0.23
6,WWNITTEAPIFLIFCFTRQG,4.8 ± 0.068
7,WWTVKLLMSEVVFRWELEYI,5.735 ± 0.04
8,WYCMNSGASMLCGLRQARFL,-0.715 ± 0.76
9,WYCRVSMRNLYIFGSIRSAY,5.34 ± 0.086
10,WYKKATNSVLANVGQDFVVK,-0.41 ± 0.36
11,WYKRVVFPMP,-0.442 ± 1
12,YACFRPFSDTRRRCGFSTL,inactive
13,YADLISSWVILGWFQRKTLF,0.228 ± 1
14,YAFSMDRWVDLMLFQRV,4.96 ± 0.092
15,YAGYNISCP,inactive
16,YAIICKPLDDPLRKGTRWRR,0.477 ± 0.4
17,YALAAVSRFG,0.22 ± 0.55
18,YANERNTDFNNRWFLHGIKR,-1.34 ± 1.1
19,YCCFMSRHGSKWHYVNICIF,inactive
20,YCGFQYLRWGVTVVNS,0.386 ± 0.19
21,YCILLLNVVVMCYMMCDGFA,0.635 ± 0.65
22,YCINGLGIGTELCVFTTKWM,-0.479 ± 0.3

row,Substance,amyloid nucleation score
1,YCMLCQGWDGICLPEVSAVW,0.146 ± 0.29
2,YCNYVTRDSFAFMSSFFMSA,-1.55 ± 1.1
3,YCPPFLHNTWAYAKRTGRGS,-0.137 ± 0.61
4,YCYVSRVFYRMCALAGWMGL,inactive
5,YDANLRLYSYSRTQLFSSWS,3.83 ± 0.088
6,YDDHDFNRAGGLTVTNVWMV,3.64 ± 0.1
7,YDLCGTALTVLGTVIY,1.15 ± 0.27
8,YDLDEGYSLMFVPQEQICAE,inactive
9,YDNMC,-0.72 ± 0.35
10,YDNSYNWTATTFFGSRPDQS,4.55 ± 0.048
11,YEGFM,-0.297 ± 0.56
12,YEIRWFRGLIK,0.495 ± 0.43
13,YFDSEPCLHFPCLVEGFRGW,-0.54 ± 1.1
14,YFFRVSYVEFVRCFGFSCRW,-0.846 ± 0.41
15,YFIRRKIRMGGHLLTWSWWI,-0.104 ± 0.49
16,YFNNPLFVEDFWLSYVSMSY,-0.749 ± 0.32
17,YFPIASALNCSLGCARCCES,0.669 ± 0.74
18,YFRMNPKFVCTKYSNAEYLS,-0.427 ± 0.64
19,YFRNDNGLWEINSCRILFIV,inactive
